B1: E3 ubiquitin ligase TRAF3IP2 (Homo sapiens), O43734-2 (parent)
chain: MNRSIPVEVDESEPYPSQLLKPIPEYSPEEESEPPAPNIRNMAPNSLSAPTMLHNSSGDFSQAHSTLKLANHQRPVSRQVTCLRTQVLEDSEDSFCRRHPGLGKAFPSGCSAVSEPASESVVGALPAEHQFSFMEKRNQWLVSQLSAASPDTGHDSDKSDQSLPNASADSLGGSQEMVQRPQPHRNRAGLDLPTIDTGYDSQPQDVLGIRQLERPLPLTSVCYPQDLPRPLRSREFPQFEPQRYPACAQMLPPNLSPHAPWNYHYHCPGSPDHQVPYGHDYPRAAYQQVIQPALPGQPLPGASVRGLHPVQKVILNYPSPWDHEERPAQRDCSFPGLPRHQDQPHHQPPNRAGAPGESLECPAELRPQVPQPPSPAAVPRPPSNPPARGTLKTSNLPEELRKVFITYSMDTAMEVVKFVNFLLVNGFQTAIDIFEDRIRGIDIIKWMERYLRDKTVMIIVAISPKYKQDVEGAESQLDEDEHGLHTKYIHRMMQIEFIKQGSMNFRFIPVLFPNAKKEHVPTWLQNTHVYSWPKNKKNILLRLLREEEYVAPPRGPLPTLQVVPL
partner: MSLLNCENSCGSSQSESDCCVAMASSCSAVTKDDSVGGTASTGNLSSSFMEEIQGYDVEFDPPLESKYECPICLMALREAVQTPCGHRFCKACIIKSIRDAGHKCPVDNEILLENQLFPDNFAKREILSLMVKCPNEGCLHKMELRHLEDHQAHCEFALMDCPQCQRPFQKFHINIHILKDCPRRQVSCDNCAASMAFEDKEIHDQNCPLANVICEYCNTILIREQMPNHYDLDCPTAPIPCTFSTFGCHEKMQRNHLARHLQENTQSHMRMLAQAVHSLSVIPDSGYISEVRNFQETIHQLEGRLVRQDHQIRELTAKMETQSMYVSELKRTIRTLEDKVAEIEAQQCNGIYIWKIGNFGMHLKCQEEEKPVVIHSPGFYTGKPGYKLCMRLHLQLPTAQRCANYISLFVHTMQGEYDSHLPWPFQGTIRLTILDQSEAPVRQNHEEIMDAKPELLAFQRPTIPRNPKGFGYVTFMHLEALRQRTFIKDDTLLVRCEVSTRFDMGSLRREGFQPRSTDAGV

Variants of: B1
Conditions: with traf6_human TRAF6, Q9Y4K3

Variant | effect of a mutation on the interaction
D10N | disrupting interaction
